Columns and labels:
[1] = test system: cynomolgus CD39 expressing CHO cells (CHO-cyCD39); assay: Inhibition of the enzymatic activity of cellular CD39 in CHO-cyCD39; assay type: cell-based, cynomolgus (Macaca fascicularis); settings: qualitative
Procedure: The inhibition of the CD39 enzymatic activity in CD39-expressing cells by antibodies was evaluated using Cell Titer GIo™ (Promega, reference G7571) that allows assessment of ATP hydrolysis through use of a reagent that generates a luminescent signal proportional to the amount of ATP present. The assay was thus designed to permit assessment of the inhibition of ATP hydrolyzed by CD39 in the cell culture supernatant. Briefly, 5×10^4 Ramos human lymphoma cells, 5×10^3 human CD39−, cynomolgus CD39—and mouse CD39− expressing CHO cells, were incubated 1 hour at 37° C. with anti-CD39 antibodies from 30 μg/ml to 5×10^−4 μg/ml. Cells were then incubated with 20 μM ATP for 1 additional hour at 37° C. Plates were centrifuged for 2 min at 400 g and 50 μl cell supernatant are transferred in a luminescence microplate (white wells). 50 μl CellTiter-Glo™ Reagent (CTG) was added to the supernatant and emitted light was quantified after a 5 min incubation in the dark using a Enspire™ luminometer. Anti-CD39 antibody efficacy was determined by comparing emitted light in presence of antibody with ATP alone (maximal light emission) and ATP together with cells (minimal light emission).

[2] = target: T1, CD39 mutants transfected in Hek-293T cells (Homo sapiens, UniProt P49961, E142K/M139A/R138A); assay: Epitope mapping: binding to CD39 mutants by flow cytometry; settings: mutant 19: R138A, M139A, E142K
T1 construct: expressed in transfected cells; host or cells: HEK293T
T1 sequence (P49961 1-510 R138A/M139A/E142K): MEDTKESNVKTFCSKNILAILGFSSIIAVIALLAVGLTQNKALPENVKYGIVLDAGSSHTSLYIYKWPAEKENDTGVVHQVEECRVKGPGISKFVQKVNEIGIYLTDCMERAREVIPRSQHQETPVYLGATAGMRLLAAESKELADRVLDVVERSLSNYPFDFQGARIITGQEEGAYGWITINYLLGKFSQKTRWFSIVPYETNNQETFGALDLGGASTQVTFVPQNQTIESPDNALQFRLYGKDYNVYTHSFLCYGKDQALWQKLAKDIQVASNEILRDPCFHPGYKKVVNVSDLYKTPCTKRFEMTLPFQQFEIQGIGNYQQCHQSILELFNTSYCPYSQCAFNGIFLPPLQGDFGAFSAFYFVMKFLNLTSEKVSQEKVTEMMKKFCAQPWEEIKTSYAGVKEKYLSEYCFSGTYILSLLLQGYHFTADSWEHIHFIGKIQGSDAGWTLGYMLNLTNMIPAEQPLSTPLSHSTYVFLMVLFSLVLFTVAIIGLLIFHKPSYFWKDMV
Procedure: CD39 mutants were generated by PCR. The sequences amplified were run on agarose gel and purified using the Macherey Nagel PCR Clean-Up Gel Extraction kit (reference 740609). The purified PCR products generated for each mutant were then ligated into an expression vector, with the ClonTech InFusion system. The vectors containing the mutated sequences were prepared as Miniprep and sequenced. After sequencing, the vectors containing the mutated sequences were prepared as Midiprep using the Promega PureYield™ Plasmid Midiprep System. HEK293T cells were grown in DMEM medium (Invitrogen), transfected with vectors using Invitrogen's Lipofectamine 2000 and incubated at 37° C. in a CO2 incubator for 48 hours prior to testing for transgene expression. The targeted amino acid mutations in the table 1 below are shown using numbering of SEQ ID NO: 1.
In order to define the epitopes of anti-CD39 antibodies, we designed CD39 mutants defined by substitutions of amino acids exposed at the molecular surface over the surface of CD39.
Dose-ranges of I-394 (10-2.5-0.625-0.1563-0.0391-0.0098-0.0024-0.0006 μg/ml) are tested on the 20 generated mutants by flow cytometry. […] Mutant 5 contains amino acid substitutions at residues Q96, N99, E143 and R147. […]

[3] = target: T2, Human CD39-L2 (NTPDase6, ENTPD6) (Homo sapiens, UniProt O75354, K202E); assay: ELISA titration on CD39-L2; assay type: binding
T2 sequence (O75354 1-484 K202E): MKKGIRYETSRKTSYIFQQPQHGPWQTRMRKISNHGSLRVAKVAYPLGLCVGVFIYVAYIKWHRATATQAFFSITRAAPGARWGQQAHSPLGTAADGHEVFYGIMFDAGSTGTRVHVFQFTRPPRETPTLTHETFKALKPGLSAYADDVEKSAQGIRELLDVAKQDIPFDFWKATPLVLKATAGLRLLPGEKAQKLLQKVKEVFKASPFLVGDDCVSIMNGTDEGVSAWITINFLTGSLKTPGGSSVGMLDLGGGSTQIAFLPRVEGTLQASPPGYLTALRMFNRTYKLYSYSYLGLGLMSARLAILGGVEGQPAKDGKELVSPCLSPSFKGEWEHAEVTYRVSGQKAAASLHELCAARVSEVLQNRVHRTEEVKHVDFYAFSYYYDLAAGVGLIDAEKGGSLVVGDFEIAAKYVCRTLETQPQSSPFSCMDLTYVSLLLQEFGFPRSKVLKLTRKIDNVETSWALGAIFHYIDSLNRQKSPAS
Procedure: Antibody I-394 was tested for binding to recombinant human CD39 isoforms (Rec-huCD39 isoforms) having amino acid sequences shown below were coated in 96-well plate in PBS 1X at 500 ng/ml or 1 μg/ml at 4° C. overnight. Wells were washed in TBS Tween® 20 (polysorbate 20), and further saturated 2H at RT in TBS Blocking buffer. Dose range concentration of primary antibody was incubated in TBS blocking buffer for 2 h at RT. Wells were washed in TBS Tween® 20 (polysorbate 20). […] Optical density was measured on Enspire™ at OD=450.

Substance: I-394: anti-CD39 antibody, VH SEQ ID NO: 6, VL SEQ ID NO: 7, human IgG1 Fc with L234A/L235E/G237A/A330S/P331S
- blocking CD39 enzymatic activity in CHO-cyCD39 [1]: blocks CD39 enzymatic activity
- binding to cells expressing mutant 19 of CD39 [2]: complete loss of binding
- binding to CD39-L2 in ELISA [3]: not to any of the isoforms CD39-L1, -L2, -L3 or -L4
